From patent US20090285798A1 come the findings set out here.

This assay deals with gp120. As to the kind of experiment: fluorescence anisotropy, Kd values of Table I, told of the isolates together.

As to “Alexa labeled mini-protein CD4M47 (peptide)”, the fold gain of affinity over CD4M48 is 3 fold.
